Experimental data reported in patent US7282556B2, “Polynucleotides and polypeptides relating to the modulation of SIRPα-CD47” (Emory University, priority 2001, dated 2007).

Target: T1, CD47-SIRPα1 binding (CD47-AP / SIRPα1-GST) (Homo sapiens, UniProt P78324)
T1 construct: Microtiter plates were coated with SIRPα1 extracellular domain fusion protein (SIRPα1-GST, 1 μg/ml) for 2 hr; A construct consisting of the extracellular domain of human CD47 fused to the catalytic domain of human placental AP; made in house
T1 sequence (P78324 31-373 limits assumed): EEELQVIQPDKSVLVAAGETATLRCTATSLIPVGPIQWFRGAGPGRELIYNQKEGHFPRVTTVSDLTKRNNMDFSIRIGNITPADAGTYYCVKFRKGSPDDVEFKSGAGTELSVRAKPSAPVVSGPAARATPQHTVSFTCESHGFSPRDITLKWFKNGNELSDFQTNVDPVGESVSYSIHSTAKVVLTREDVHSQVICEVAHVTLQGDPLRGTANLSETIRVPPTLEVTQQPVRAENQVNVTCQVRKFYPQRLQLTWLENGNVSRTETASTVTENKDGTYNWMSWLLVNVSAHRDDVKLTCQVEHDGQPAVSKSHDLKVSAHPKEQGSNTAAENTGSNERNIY
Test: CD47-AP binding to immobilized SIRPα1-GST (alkaline phosphatase activity)
Settings: SIRPα-GST coated 2 μg/ml, CD47-AP 1-2 μg/ml
Procedure: FIG. 2C (right panel) is a bar graph that illustrates CD47-AP specifically binds to SIRPα-GST fusion protein but not SIRPβ-GST. In this panel, microtiter plates were coated with either SIRPα-GST or highly similar SIRPβ-GST (10 μg/ml) followed by blocking with BSA. To each well was then added recombinant CD47-AP followed by washing. Bound CD47-AP was then detected by assay for alkaline phosphatase after addition of appropriate substrate.
FIGS. 6A-6C are graphs that illustrate the effects of synthetic peptides on CD47-SIRPα binding. FIG. 6A illustrates the effect of peptide C5/D5.1 on CD47-SIRPα binding. […] After blocking, CD47-AP was added in the absence or presence of synthetic peptides C5/D5.1 and control peptides C5/D5.4, C5/D5.11 and C5/D5.12 (used as 1 mM each). “*” p<0.01. CD47-AP binding was then detected by assay of alkaline phosphatase activity and normalized with respect to binding in the absence of any peptide (CD47-AP only). FIG. 6B illustrates the effect of dose-dependent inhibition of CD47-SIRPα1 binding by peptide C5/D5.1 performed as in FIG. 6A but with increasing concentrations of peptide as indicated. […] Binding of these proteins were detected by a goat anti-GST antibody followed by peroxidase conjugated anti-goat secondary (for detecting SIRPα1-GST) or directly developed for alkaline phosphatase activity (for detecting CD47-AP). […]

B1: JAM-AP: control AP fusion protein containing the extracellular domain of junction adhesion molecule (protein)
chain: SVTVHSSEPEVRIPENNPVKLSCAYSGFSSPRVEWKFDQGDTTRLVCYNNKITASYEDRVTFLPTGITFKSVTREDTGTYTCMVSEEGGNSYGEVKVKLIVLVPPSKPTVNIPSSATIGNRAVLTCSEQDGSPPSEYTWFKDGIVMPTNPKSTRAFSNSSYVLNPTTGELVFDPLSASDTGEYSCEARNGYGTPMTSNAVRMEAVERNVGV
modifications: left off: large carriers
notes: control AP fusion protein containing the extracellular domain of junction adhesion molecule
- binding of AP fusion protein to SIRPα-GST (AP activity, OD405): absence of binding
